Where no end group is shown, it is not given here. [ ]: non-standard residue; d: D form. Abu = CC[C@H](N)C(=O)O

One experiment deals with T1, HLA-A*0201 (human).
T1 construct: Purified HLA class I molecule; also called HLA-A2.1
In words: competition with 125I-labelled standard peptide for purified HLA-A*0201, gel filtration; ratio to the standard peptide.

The target in experiment [1] is HLA-A*0301 (human). In words: inhibition of 125I probe peptide binding to purified HLA.
For a further experiment, the target named is HLA-A*1101 (human). Described as above.
The target of another experiment is HLA-A*3101 (human). The description is as above.
A further experiment addresses HLA-A*3301 (human). The description is as above.
A further experiment has as its target HLA-A*6801 (human). The description is as above.
Experiment [2] addresses T2, HLA-A*0301 (human).
T2 construct: Purified HLA molecule, 5 to 500 nM in the assay; also called HLA-A3
In words: competition with 125I-labelled probe peptide on purified HLA-A*0301, gel filtration; ratio to standard peptide 941.12.

The target in the next experiment is HLA-B*0702 (human). In words: competition with 125I probe peptide, purified HLA.
A further experiment concerns the target HLA-B*3501 (human). In words: competition with 125I probe peptide, purified HLA.
A further experiment concerns the target HLA-B*5101 (human). The experiment is described as follows: competition with 125I probe peptide, purified HLA.
For the next experiment, the target named is HLA-B*5301 (human). The experiment is described as follows: competition with 125I probe peptide, purified HLA.

In the case of GAAKGLQSL (Synthetic peptide) [HER2/neu peptide, position 1093, 9 amino acids], the “relative binding ratio (IC50 of standard peptide / IC50 of test peptide)” value in the experiment with HLA-A*0201 came to 0.0001 ratio.

The term IC50 denotes the concentration needed to halve the response being measured. Low readings indicate higher potency, high ones lower potency. On to CVNCSQFLR (synthetic peptide) [Her2/neu.528], for which the concentration for half-maximal inhibition (IC50) with HLA-A*0301 [1] stood at 7330 nM; with HLA-A*1101, 194 nM; with HLA-A*3101, 34 nM; with HLA-A*3301, 50 nM; with HLA-A*6801, 18 nM.

On to WMIDSECRPR [HER2/neu peptide, position 959, 10 amino acids], for which the “relative binding ratio (IC50 of standard peptide / IC50 of test peptide)” value with HLA-A*0301 [2] is -0.0002 relative binding ratio.

Turning to DLSVFQNLQV [HER2/neu peptide, position 421, 10 amino acids], the “relative binding ratio (IC50 of standard peptide / IC50 of test peptide)” value in the experiment with HLA-A*0201 was 0.0003 ratio.

Consider ELAALCRWGL (Synthetic peptide) [HER2/neu peptide, position 2, 10 amino acids], for which, in the experiment with HLA-A*0201, the “relative binding ratio (IC50 of standard peptide / IC50 of test peptide)” value was found to be 0.0001 ratio.

Regarding GAMPNQAQM (T0001 prints N at position 706) [HER2/neu peptide, position 704, 9 amino acids], the “relative binding ratio (IC50 of standard peptide / IC50 of test peptide)” value in the experiment with HLA-A*0201 turned out to be 0.0002 ratio.

Consider DLLNWCMQI (Synthetic peptide) [HER2/neu peptide, position 821, 9 amino acids], for which, in the experiment with HLA-A*0201, the “relative binding ratio (IC50 of standard peptide / IC50 of test peptide)” value is 0.0002 ratio.

Turning to IVWLGLRSLR (synthetic analog peptide) [Her2/neu.450.V2], the IC50 is 234 nM with HLA-A*0301 [1]; 1940 nM in the experiment with HLA-A*1101; 11 nM with HLA-A*3101; 193 nM with HLA-A*3301; 7.3 nM with HLA-A*6801.

As for ISWLGLRSLR (synthetic peptide) [Her2/neu.450], the IC50 came to 268 nM in the experiment with HLA-A*0301 [1], 6.9 nM in the experiment with HLA-A*3101, 223 nM with HLA-A*3301 and 73 nM in the experiment with HLA-A*6801.

B1: Her2/neu.528.B1B4 (peptide)
peptide: [Abu]VN[Abu]SQFLR
notes: synthetic analog peptide; also called BVNBSQFLR
In the case of B1, the IC50 in the experiment with HLA-A*0301 [1] is 177 nM; with HLA-A*1101 it was 80 nM; with HLA-A*3101 it was 38 nM; with HLA-A*3301 it was 58 nM; with HLA-A*6801, 10 nM.

B2: Her2/neu.528.B1B4K9 (peptide)
peptide: BVNBSQFLK
modifications: B at positions 1 and 4 = alpha-amino butyric acid (in place of cysteine)
notes: synthetic analog peptide; also called BVNBSQFLK
B2: the half-inhibitory concentration (IC50) with HLA-A*0301 [1] was found to be 34 nM; in the experiment with HLA-A*1101, 22 nM; with HLA-A*3101, 60 nM; with HLA-A*3301 it was 4260 nM; with HLA-A*6801 it was 15 nM.

As for FPTNASLSFL (analog peptide) [Her2/neu.65.F1 (10-mer)], the IC50 with HLA-B*0702 worked out at 18 nM; with HLA-B*3501 it was 200 nM; with HLA-B*5101 it was 262 nM; with HLA-B*5301 it was 172 nM.

On to DVRLVHRDL (Synthetic peptide) [HER2/neu peptide, position 838, 9 amino acids], for which, in the experiment with HLA-A*0201, the “relative binding ratio (IC50 of standard peptide / IC50 of test peptide)” value came out at 0.0002 ratio.

As for ELVSEFSRMA (Synthetic peptide) [HER2/neu peptide, position 971, 10 amino acids], the “relative binding ratio (IC50 of standard peptide / IC50 of test peptide)” value with HLA-A*0201 is 0.0001 ratio.

As to DLVDAEEYLV (Synthetic peptide) [HER2/neu peptide, position 1016, 10 amino acids], the “relative binding ratio (IC50 of standard peptide / IC50 of test peptide)” value in the experiment with HLA-A*0201 is 0.0002 ratio.

For TVLWKDIFHR (synthetic analog peptide) [Her2/neu.166.V2R10], the IC50 was 8460 nM with HLA-A*0301 [1]; 286 nM with HLA-A*1101; 600 nM with HLA-A*3101; 76 nM with HLA-A*3301; 42 nM with HLA-A*6801.

Regarding YVMAGVGSPY [HER2/neu peptide, position 772, 10 amino acids], the “relative binding ratio (IC50 of standard peptide / IC50 of test peptide)” value with HLA-A*0301 [2] turned out to be 0.01 relative binding ratio.

B3: Her2/neu.600 (peptide)
peptide: CPSGVKPDLSY
notes: native HER2/neu peptide from position 600
Turning to B3, the 50% inhibitory concentration (IC50) with HLA-B*0702 is 183 nM; in the experiment with HLA-B*3501 it was 3600 nM.

As to FPSGVKPDLSI (analog peptide) [Her2/neu.600.F1I11], the IC50 with HLA-B*0702 is 196 nM; with HLA-B*3501, 3270 nM.

For the molecule YVLIAHNQVR [HER2/neu peptide, position 83, 10 amino acids], the “relative binding ratio (IC50 of standard peptide / IC50 of test peptide)” value with HLA-A*0301 [2] amounted to 0.0043 relative binding ratio.

Consider ILKGGVLIQR (synthetic peptide) [Her2/neu.148], for which the IC50 is 275 nM with HLA-A*0301 [1], 25 nM in the experiment with HLA-A*3101 and 121 nM in the experiment with HLA-A*3301.

With IVKGGVLIQK (synthetic analog peptide) [Her2/neu.148.V2K10], the IC50 with HLA-A*0301 [1] worked out at 26 nM; in the experiment with HLA-A*1101, 102 nM; in the experiment with HLA-A*3101 it was 450 nM; in the experiment with HLA-A*3301 it was 6590 nM; with HLA-A*6801 it was 27 nM.

Turning to DVFAFGGAV (Synthetic peptide) [HER2/neu peptide, position 1183, 9 amino acids], the “relative binding ratio (IC50 of standard peptide / IC50 of test peptide)” value in the experiment with HLA-A*0201 turned out to be 0.0002 ratio.

B4: Her2/neu.65 (9-mer) (peptide)
peptide: LPTNASLSF
notes: native HER2/neu peptide from position 65
Turning to B4, the figures for the half-maximal inhibitory concentration (IC50) with HLA-B*3501, with HLA-B*5101 and with HLA-B*5301 were 114 nM, 809 nM and 34 nM, respectively.

Take IVWKDIFHK (synthetic analog peptide) [Her2/neu.167.V2]: the IC50 in the experiment with HLA-A*0301 [1] is 23 nM; with HLA-A*1101, 40 nM; in the experiment with HLA-A*3101, 247 nM; in the experiment with HLA-A*3301, 853 nM.

Consider IVWKDIFHR (synthetic analog peptide) [Her2/neu.167.V2R9], for which the IC50 with HLA-A*0301 [1] turned out to be 143 nM; in the experiment with HLA-A*1101 it was 286 nM; with HLA-A*3101, 6 nM; with HLA-A*3301, 16 nM; in the experiment with HLA-A*6801, 15 nM.

As to ILWKDIFHK (synthetic peptide) [Her2/neu.167], the IC50 is 39 nM with HLA-A*0301 [1]; 19 nM with HLA-A*1101; 82 nM in the experiment with HLA-A*3101; 967 nM in the experiment with HLA-A*3301; 1740 nM in the experiment with HLA-A*6801.

With EILKGGVLI (Synthetic peptide) [HER2/neu peptide, position 147, 9 amino acids], the “relative binding ratio (IC50 of standard peptide / IC50 of test peptide)” value in the experiment with HLA-A*0201 is 0.0001 ratio.

As to YLEDVRLVHR [HER2/neu peptide, position 835, 10 amino acids], the “relative binding ratio (IC50 of standard peptide / IC50 of test peptide)” value with HLA-A*0301 [2] worked out at 0.0003 relative binding ratio.

B5: Her2/neu.218.B3B7 (peptide)
peptide: TV[Abu]AGG[Abu]AR
notes: synthetic analog peptide; also called TVBAGGBAR
For the molecule B5, the IC50 is 314 nM in the experiment with HLA-A*0301 [1]; 111 nM with HLA-A*1101; 247 nM in the experiment with HLA-A*3101; 242 nM with HLA-A*3301; 8 nM with HLA-A*6801.

As to TILWKDIFHK (synthetic peptide) [Her2/neu.166], the IC50 in the experiment with HLA-A*0301 [1] amounted to 256 nM; with HLA-A*1101, 1.7 nM; in the experiment with HLA-A*3101, 487 nM; in the experiment with HLA-A*3301, 690 nM; in the experiment with HLA-A*6801 it was 200 nM.

FVHTVPWDQL (Synthetic peptide) [HER2/neu peptide, position 476, 10 amino acids]: the “relative binding ratio (IC50 of standard peptide / IC50 of test peptide)” value in the experiment with HLA-A*0201 was 0.0001 ratio.

With GAFGTVYKGI (Synthetic peptide) [HER2/neu peptide, position 729, 10 amino acids], the “relative binding ratio (IC50 of standard peptide / IC50 of test peptide)” value with HLA-A*0201 is 0.0001 ratio.

With DVWSYGVTV (Synthetic peptide) [HER2/neu peptide, position 904, 9 amino acids], the “relative binding ratio (IC50 of standard peptide / IC50 of test peptide)” value in the experiment with HLA-A*0201 came out at 0.0002 ratio.

For the molecule FVVIQNEDL (Synthetic peptide) [HER2/neu peptide, position 986, 9 amino acids], the “relative binding ratio (IC50 of standard peptide / IC50 of test peptide)” value with HLA-A*0201 was determined as 0.0002 ratio.

On to ELGSGLALI (Synthetic peptide) [HER2/neu peptide, position 460, 9 amino acids], for which, in the experiment with HLA-A*0201, the “relative binding ratio (IC50 of standard peptide / IC50 of test peptide)” value came out at 0.0004 ratio.

Regarding QLRSLTEILK (synthetic peptide) [Her2/neu.141], the IC50 is 55 nM in the experiment with HLA-A*0301 [1], 667 nM with HLA-A*3101 and 6170 nM with HLA-A*3301.

Take DLVDAEEYL (Synthetic peptide) [HER2/neu peptide, position 1016, 9 amino acids]: the “relative binding ratio (IC50 of standard peptide / IC50 of test peptide)” value with HLA-A*0201 came to 0.0002 ratio.

HVVPWDQLFR (synthetic analog peptide) [Her2/neu.478.V2]: the IC50 with HLA-A*0301 [1] was 7330 nM; with HLA-A*1101 it was 1330 nM; with HLA-A*3101, 391 nM; with HLA-A*3301, 193 nM; in the experiment with HLA-A*6801, 3.6 nM.

Regarding HTVPWDQLFR (synthetic peptide) [Her2/neu.478], the IC50 in the experiment with HLA-A*0301 [1] turned out to be 3140 nM; in the experiment with HLA-A*1101 it was 83 nM; with HLA-A*3101, 19 nM; in the experiment with HLA-A*3301 it was 88 nM; with HLA-A*6801 it was 4 nM.
